Experimental data taken from patent US20230407373A1 (priority 2020, published 2023).
Read-outs that look alike come from different tables or passages of the source.

B1: RIAS: host protein, UniProt P31483 (protein, UniProt P31483 1-386, looked up)
Cytotoxic granule associated …: MEDEMPKTLYVGNLSRDVTEALILQLFSQIGPCKNCKMIMDTAGNDPYCFVEFHEHRHAAAALAAMNGRKIMGKEVKVNWATTPSSQKKDTSSSTVVSTQRSQDHFHVFVGDLSPEITTEDIKAAFAPFGRISDARVVKDMATGKSKGYGFVSFFNKWDAENAIQQMGGQWLGGRQIRTNWATRKPPAPKSTYESNTKQLSYDEVVNQSSPSNCTVYCGGVTSGLTEQLMRQTFSPFGQIMEIRVFPDKGYSFVRFNSHESAAHAIVSVNGTTIEGHVVKCYWGKETLDMINPVQQQNQIGYPQPYGQWGQWYGNAQQIGQYMPNGWQVPAYGMYGQAWNQQGFNQTQSSAPWMGPNYGVQPPQGQNGSMLPNQPSGYRVAGYETQ
B2: SNW1 (protein, UniProt Q13573 2-536, looked up)
SNW domain-containing protein …: ALTSFLPAPTQLSQDQLEAEEKARSQRSRQTSLVSSRREPPPYGYRKGWIPRLLEDFGDGGAFPEIHVAQYPLDMGRKKKMSNALAIQVDSEGKIKYDAIARQGQSKDKVIYSKYTDLVPKEVMNADDPDLQRPDEEAIKEITEKTRVALEKSVSQKVAAAMPVRAADKLAPAQYIRYTPSQQGVAFNSGAKQRVIRMVEMQKDPMEPPRFKINKKIPRGPPSPPAPVMHSPSRKMTVKEQQEWKIPPCISNWKNAKGYTIPLDKRLAADGRGLQTVHINENFAKLAEALYIADRKAREAVEMRAQVERKMAQKEKEKHEEKLREMAQKARERRAGIKTHVEKEDGEARERDEIRHDRRKERQHDRNLSRAAPDKRSKLQRNENRDISEVIALGVPNPRTSNEVQYDQRLFNQSKGMDSGFAGGEDEIYNVYDQAWRGGKDMAQSIYRPSKNLDKDMYGDDLEARIKTNRFVPDKEFSGSDRRQRGREGPVQFEEDPFGLDKFLEEAKQHGGSKRPSDSSRPKEHEHEGKKRRKE
B3: TECR: host protein, UniProt Q9NZ01 (protein, UniProt Q9NZ01 1-308, looked up)
Very-long-chain enoyl-CoA …: MKHYEVEILDAKTREKLCFLDKVEPHATIAEIKNLFTKTHPQWYPARQSLRLDPKGKSLKDEDVLQKLPVGTTATLYFRDLGAQISWVTVFLTEYAGPLFIYLLFYFRVPFIYGHKYDFTSSRHTVVHLACICHSFHYIKRLLETLFVHRFSHGTMPLRNIFKNCTYYWGFAAWMAYYINHPLYTPPTYGAQQVKLALAIFVICQLGNFSIHMALRDLRPAGSKTRKIPYPTKNPFTWLFLLVSCPNYTYEVGSWIGFAIMTQCLPVALFSLVGFTQMTIWAKGKHRSYLKEFRDYPPLRMPIIPFLL
B4: HNRNPAO: host protein, UniProt Q13151 (protein, UniProt Q13151 1-305, looked up)
Heterogeneous nuclear …: MENSQLCKLFIGGLNVQTSESGLRGHFEAFGTLTDCVVVVNPQTKRSRCFGFVTYSNVEEADAAMAASPHAVDGNTVELKRAVSREDSARPGAHAKVKKLFVGGLKGDVAEGDLIEHFSQFGTVEKAEIIADKQSGKKRGFGFVYFQNHDAADKAAVVKFHPIQGHRVEVKKAVPKEDIYSGGGGGGSRSSRGGRGGRGRGGGRDQNGLSKGGGGGYNSYGGYGGGGGGGYNAYGGGGGGSSYGGSDYGNGFGGFGSYSQHQSSYGPMKSGGGGGGGGSSWGGRSNSGPYRGGYGGGGGYGGSSF
B5: DDX1: host protein, UniProt Q92499 (protein, UniProt Q92499 1-740, looked up)
ATP-dependent RNA helicase …: MAAFSEMGVMPEIAQAVEEMDWLLPTDIQAESIPLILGGGDVLMAAETGSGKTGAFSIPVIQIVYETLKDQQEGKKGKTTIKTGASVLNKWQMNPYDRGSAFAIGSDGLCCQSREVKEWHGCRATKGLMKGKHYYEVSCHDQGLCRVGWSTMQASLDLGTDKFGFGFGGTGKKSHNKQFDNYGEEFTMHDTIGCYLDIDKGHVKFSKNGKDLGLAFEIPPHMKNQALFPACVLKNAELKFNFGEEEFKFPPKDGFVALSKAPDGYIVKSQHSGNAQVTQTKFLPNAPKALIVEPSRELAEQTLNNIKQFKKYIDNPKLRELLIIGGVAARDQLSVLENGVDIVVGTPGRLDDLVSTGKLNLSQVRFLVLDEADGLLSQGYSDFINRMHNQIPQVTSDGKRLQVIVCSATLHSFDVKKLSEKIMHFPTWVDLKGEDSVPDTVHHVVVPVNPKTDRLWERLGKSHIRTDDVHAKDNTRPGANSPEMWSEAIKILKGEYAVRAIKEHKMDQAIIFCRTKIDCDNLEQYFIQQGGGPDKKGHQFSCVCLHGDRKPHERKQNLERFKKGDVRFLICTDVAARGIDIHGVPYVINVTLPDEKQNYVHRIGRVGRAERMGLAISLVATEKEKVWYHVCSSRGKGCYNTRLKEDGGCTIWYNEMQLLSEIEEHLNCTISQVEPDIKVPVDEFDGKVTYGQKRAAGGGSYKGHVDILAPTVQELAALEKEAQTSFLHLGYLPNQLFRTF
B6: UPF1: host protein, UniProt Q92900 (protein, UniProt Q92900 1-1129, looked up)
Regulator of nonsense …: MSVEAYGPSSQTLTFLDTEEAELLGADTQGSEFEFTDFTLPSQTQTPPGGPGGPGGGGAGGPGGAGAGAAAGQLDAQVGPEGILQNGAVDDSVAKTSQLLAELNFEEDEEDTYYTKDLPIHACSYCGIHDPACVVYCNTSKKWFCNGRGNTSGSHIVNHLVRAKCKEVTLHKDGPLGETVLECYNCGCRNVFLLGFIPAKADSVVVLLCRQPCASQSSLKDINWDSSQWQPLIQDRCFLSWLVKIPSEQEQLRARQITAQQINKLEELWKENPSATLEDLEKPGVDEEPQHVLLRYEDAYQYQNIFGPLVKLEADYDKKLKESQTQDNITVRWDLGLNKKRIAYFTLPKTDSGNEDLVIIWLRDMRLMQGDEICLRYKGDLAPLWKGIGHVIKVPDNYGDEIAIELRSSVGAPVEVTHNFQVDFVWKSTSFDRMQSALKTFAVDETSVSGYIYHKLLGHEVEDVIIKCQLPKRFTAQGLPDLNHSQVYAVKTVLQRPLSLIQGPPGTGKTVTSATIVYHLARQGNGPVLVCAPSNIAVDQLTEKIHQTGLKVVRLCAKSREAIDSPVSFLALHNQIRNMDSMPELQKLQQLKDETGELSSADEKRYRALKRTAERELLMNADVICCTCVGAGDPRLAKMQFRSILIDESTQATEPECMVPVVLGAKQLILVGDHCQLGPVVMCKKAAKAGLSQSLFERLVVLGIRPIRLQVQYRMHPALSAFPSNIFYEGSLQNGVTAADRVKKGFDFQWPQPDKPMFFYVTQGQEEIASSGTSYLNRTEAANVEKITTKLLKAGAKPDQIGIITPYEGQRSYLVQYMQFSGSLHTKLYQEVEIASVDAFQGREKDFIILSCVRANEHQGIGFLNDPRRLNVALTRARYGVIIVGNPKALSKQPLWNHLLNYYKEQKVLVEGPLNNLRESLMQFSKPRKLVNTINPGARFMTTAMYDAREAIIPGSVYDRSSQGRPSSMYFQTHDQIGMISAGPSHVAAMNIPIPFNLVMPPMPPPGYFGQANGPAAGRGTPKGKTGRGGRQKNRFGLPGPSQTNLPNSQASQDVASQPFSQGALTQGYISMSQPSQMSQPGLSQPELSQDSYLGDEFKSQIDVALSQDSTYQGERAYQHGGVTGLSQY
B7: RBM15: host protein, UniProt Q96T37 (protein, UniProt Q96T37 1-977, looked up)
RNA-binding protein 15: MRTAGRDPVPRRSPRWRRAVPLCETSAGRRVTQLRGDDLRRPATMKGKERSPVKAKRSRGGEDSTSRGERSKKLGGSGGSNGSSSGKTDSGGGSRRSLHLDKSSSRGGSREYDTGGGSSSSRLHSYSSPSTKNSSGGGESRSSSRGGGGESRSSGAASSAPGGGDGAEYKTLKISELGSQLSDEAVEDGLFHEFKRFGDVSVKISHLSGSGSGDERVAFVNFRRPEDARAAKHARGRLVLYDRPLKIEAVYVSRRRSRSPLDKDTYPPSASVVGASVGGHRHPPGGGGGQRSLSPGGAALGYRDYRLQQLALGRLPPPPPPPLPRDLERERDYPFYERVRPAYSLEPRVGAGAGAAPFREVDEISPEDDQRANRTLFLGNLDITVTESDLRRAFDRFGVITEVDIKRPSRGQTSTYGFLKFENLDMSHRAKLAMSGKIIIRNPIKIGYGKATPTTRLWVGGLGPWVPLAALAREFDRFGTIRTIDYRKGDSWAYIQYESLDAAHAAWTHMRGFPLGGPDRRLRVDFADTEHRYQQQYLQPLPLTHYELVTDAFGHRAPDPLRGARDRTPPLLYRDRDRDLYPDSDWVPPPPPVRERSTRTAATSVPAYEPLDSLDRRRDGWSLDRDRGDRDLPSSRDQPRKRRLPEESGGRHLDRSPESDRPRKRHCAPSPDRSPELSSSRDRYNSDNDRSSRLLLERPSPIRDRRGSLEKSQGDKRDRKNSASAERDRKHRTTAPTEGKSPLKKEDRSDGSAPSTSTASSKLKSPSQKQDGGTAPVASASPKLCLAWQGMLLLKNSNFPSNMHLLQGDLQVASSLLVEGSTGGKVAQLKITQRLRLDQPKLDEVTRRIKVAGPNGYAILLAVPGSSDSRSSSSSAASDTATSTQRPLRNLVSYLKQKQAAGVISLPVGGNKDKENTGVLHAFPPCEFSQQFLDSPAKALAKSEEDYLVMIIVRGFGFQIGVRYENKKRENLALTLL

Experiments:
gRNA of HCoV-OC43 = type: binding; settings: for target (spectral count) / background (spectral count): type g_36_m, 36 hpi, Probe I; for target (spectral count): HCoV-OC43-infected HCT-8 cells; for background (spectral count): uninfected-probe control; for target (spectral count, OC43 Probe I RNP capture) / background (spectral count, no-probe control): type n_48_v: 48 hours post-infection; for target (spectral count, OC43 Probe I RNP capture): infected cells, unweighted spectral count; for background (spectral count, no-probe control): no-probe control on infected cells
HCoV-OC43 gRNA and sgRNA = type: binding; settings: for target (unweighted spectral count, OC43 Probe II capture) / target (unweighted spectral count): tested against no-probe control; for target (unweighted spectral count, OC43 Probe II capture): FDR<10%; for target (unweighted spectral count): OC43 Probe II, 24 hpi (type n_24_v), infected cells; for target (unweighted spectral count, OC43 Probe II) / background (unweighted spectral count, no-probe control): type n_48_v, 48 hpi; for target (unweighted spectral count, OC43 Probe II): OC43 Probe II capture on infected cells; for background (unweighted spectral count, no-probe control): no-probe control on infected cells; for target (spectral count) / background (spectral count): type s_36_m, Probe II; for target (spectral count): HCoV-OC43-infected HCT-8 cells; for background (spectral count): uninfected-probe control

Row | Molecule | target (spectral count) (gRNA of HCoV-OC43) | background (spectral count) (gRNA of HCoV-OC43) | target (spectral count, OC43 Probe I RNP capture) (gRNA of HCoV-OC43) | background (spectral count, no-probe control) (gRNA of HCoV-OC43) | target (unweighted spectral count, OC43 Probe II capture) (HCoV-OC43 gRNA and sgRNA; 36 hpi, type n_36_v) | target (unweighted spectral count) (HCoV-OC43 gRNA and sgRNA) | target (unweighted spectral count, OC43 Probe II) (HCoV-OC43 gRNA and sgRNA) | background (unweighted spectral count, no-probe control) (HCoV-OC43 gRNA and sgRNA) | target (spectral count) (HCoV-OC43 gRNA and sgRNA; 36 hpi) | background (spectral count) (HCoV-OC43 gRNA and sgRNA; 36 hpi) | target (unweighted spectral count, OC43 Probe II capture) (HCoV-OC43 gRNA and sgRNA; 24 hpi, type n_24_v)
1 | B1 | 10 | 1 |  |  |  |  |  |  |  |  | 
2 | B2 |  |  | 5 | 1 |  |  |  |  |  |  | 
3 | B3 | 9 | 1 |  |  |  |  |  |  |  |  | 
4 | B4 | 15 | 2 |  |  |  |  |  |  |  |  | 
5 | B5 | 12 | 1 | 12 | 1 | 9 | 7 | 11 | 1 | 9 | 1 | 
6 | B6 |  |  | 13 | 1 | 16 | 8 | 16 | 1 | 16 | 1 | 
7 | B7 | 9 | 1 | 14 | 1 |  |  | 11 | 1 |  |  | 5
